Here are results for two molecules from article PMC3921674 (2014).

The target of assay [1] is WDR5 F266A (isothermal calorimetry) (UniProt P61964 1-334, F266A). Description: ITC. For orientation: In ITC the heat of successive injections is recorded.
For assay [2], the target named is WDR5 (wild type, isothermal calorimetry) (UniProt P61964 1-334). Description: ITC.

B1: MLL1(3762-3802) (peptide)
chain: GSARAEVHLRKSAFDMFNFLASKHRQPPEYNPNDEEEEEVQ
Usually Kd stands for a measure of binding affinity in units of concentration. As for B1, the Kd in assay [1] was determined as 0.6 µM; in assay [2], 0.97 µM.

B2: H3(1-10) (peptide)
peptide: ARTKQTARKS
Take B2: the dissociation constant (Kd) amounted to 34.7 µM in assay [1] and 31.1 µM in assay [2].
